Measurements taken from the MegaScale stability set (Tsuboyama et al. 2023).

B1: r16_88_TrROS_Hall (parent)
chain: EVIELKIKFKTPEQREKLKEIAKKLNAEVVEEKDGEVIIRFKTPEQAERALKEAEKLGAEVEL

Variants of: B1
Assay: folding stability dG (cDNA display proteolysis); higher = more stable
Conditions: PBS, room temperature

First: V61Q
Second: V61D
The “folding stability dG” value of the first is lower: 4.22 kcal/mol for the first, 4.72 kcal/mol for the second.

First: V61I
Second: G35E
The “folding stability dG” value of the first is higher: 4.29 kcal/mol for the first, 4.14 kcal/mol for the second.

First: G35N
Second: T11M
The “folding stability dG” value of the first is lower: 4.33 kcal/mol for the first, 4.62 kcal/mol for the second.

Compared with T11A, F9G is lower in “folding stability dG” value: 4.39 kcal/mol for the first, 3.9 kcal/mol for the second.

Compared with F9E, K24F is higher in “folding stability dG” value: 2.48 kcal/mol for the first, 4.67 kcal/mol for the second.

Going from K24E to K42D, the “folding stability dG” value falls from 4.43 kcal/mol to 4.01 kcal/mol.

Going from K42F to K10I, the “folding stability dG” value falls from 4.33 kcal/mol to 4.09 kcal/mol.

Compared with K10E, I7R is lower in “folding stability dG” value: 4 kcal/mol for the first, 3.04 kcal/mol for the second.

Compared with I7P, I7S is higher in “folding stability dG” value: 2.3 kcal/mol for the first, 3.87 kcal/mol for the second.

First: R40I
Second: R40V
The “folding stability dG” value of the first is lower: 4.47 kcal/mol for the first, 4.64 kcal/mol for the second.

Compared with R40G, P44V is higher in “folding stability dG” value: 4.15 kcal/mol for the first, 4.35 kcal/mol for the second.

First: V2P
Second: V2A
The “folding stability dG” value of the first is lower: 4.16 kcal/mol for the first, 4.3 kcal/mol for the second.

Compared with V2S, V2M is higher in “folding stability dG” value: 4.13 kcal/mol for the first, 4.45 kcal/mol for the second.

Going from D34S to D34G, the “folding stability dG” value rises from 4.25 kcal/mol to 4.46 kcal/mol.

First: D34F
Second: D34K
The “folding stability dG” value of the first is higher: 4.34 kcal/mol for the first, 4.19 kcal/mol for the second.

Compared with V29Q, V29I is lower in “folding stability dG” value: 4.76 kcal/mol for the first, 4.3 kcal/mol for the second.

Going from V29G to P12K, the “folding stability dG” value falls from 4.47 kcal/mol to 4.4 kcal/mol.

First: P12L
Second: P12T
The “folding stability dG” value of the first is lower: 4.31 kcal/mol for the first, 4.57 kcal/mol for the second.

Compared with P12I, E13P is higher in “folding stability dG” value: 4.47 kcal/mol for the first, 4.54 kcal/mol for the second.

Compared with E13G, L57G is lower in “folding stability dG” value: 4.51 kcal/mol for the first, 3.96 kcal/mol for the second.

First: L25R
Second: L25Y
The “folding stability dG” value of the first is lower: 4.09 kcal/mol for the first, 4.91 kcal/mol for the second.

Going from L25V to L25P, the “folding stability dG” value falls from 4.32 kcal/mol to 3.67 kcal/mol.

Going from A22G to A22T, the “folding stability dG” value falls from 4.64 kcal/mol to 4.36 kcal/mol.

Compared with A22F, A22I is lower in “folding stability dG” value: 4.65 kcal/mol for the first, 4.38 kcal/mol for the second.

Compared with E55F, E55K is lower in “folding stability dG” value: 4.59 kcal/mol for the first, 4.3 kcal/mol for the second.

First: E55S
Second: F41I
The “folding stability dG” value of the first is higher: 4.51 kcal/mol for the first, 4.16 kcal/mol for the second.

First: F41W
Second: F41S
The “folding stability dG” value of the first is lower: 4 kcal/mol for the first, 4.03 kcal/mol for the second.

Compared with F41C, F41N is lower in “folding stability dG” value: 4.28 kcal/mol for the first, 3.33 kcal/mol for the second.

First: E45P
Second: E45W
The “folding stability dG” value of the first is lower: 4.16 kcal/mol for the first, 4.37 kcal/mol for the second.

Going from E45I to E45L, the “folding stability dG” value falls from 4.5 kcal/mol to 4.29 kcal/mol.

Going from I38K to I38G, the “folding stability dG” value falls from 3.82 kcal/mol to 3.78 kcal/mol.

Going from I38N to I38W, the “folding stability dG” value rises from 4.24 kcal/mol to 4.96 kcal/mol.

Going from I38H to I38E, the “folding stability dG” value falls from 4.63 kcal/mol to 3.67 kcal/mol.

Going from E16G to E20C, the “folding stability dG” value falls from 4.52 kcal/mol to 4.51 kcal/mol.

First: E20N
Second: E62G
The “folding stability dG” value of the first is lower: 4.25 kcal/mol for the first, 4.46 kcal/mol for the second.

Going from A54P to A54C, the “folding stability dG” value rises from 2.86 kcal/mol to 4.41 kcal/mol.

First: A54H
Second: A54L
The “folding stability dG” value of the first is lower: 3.5 kcal/mol for the first, 4.35 kcal/mol for the second.

Going from A54W to A54F, the “folding stability dG” value rises from 4.08 kcal/mol to 4.35 kcal/mol.

Compared with E48F, E48P is lower in “folding stability dG” value: 4.72 kcal/mol for the first, 3.89 kcal/mol for the second.

Going from E48W to E48V, the “folding stability dG” value falls from 4.47 kcal/mol to 4.17 kcal/mol.

First: L18A
Second: L18N
The “folding stability dG” value of the first is higher: 4.39 kcal/mol for the first, 2.97 kcal/mol for the second.

Going from E36S to E36G, the “folding stability dG” value rises from 4.26 kcal/mol to 4.39 kcal/mol.

Compared with K8Y, K8E is lower in “folding stability dG” value: 4.61 kcal/mol for the first, 3.87 kcal/mol for the second.

Going from K8R to K8H, the “folding stability dG” value falls from 4.62 kcal/mol to 4.25 kcal/mol.

First: L63P
Second: L63N
The “folding stability dG” value of the first is higher: 4.69 kcal/mol for the first, 4.3 kcal/mol for the second.

Going from L5S to L5M, the “folding stability dG” value rises from 3.94 kcal/mol to 4.49 kcal/mol.

First: E31G
Second: E31F
The “folding stability dG” value of the first is lower: 4.41 kcal/mol for the first, 4.61 kcal/mol for the second.

First: E1I
Second: E1V
The “folding stability dG” value of the first is higher: 4.29 kcal/mol for the first, 4.06 kcal/mol for the second.

First: E1N
Second: E32G
The “folding stability dG” value of the first is lower: 4.33 kcal/mol for the first, 4.46 kcal/mol for the second.

First: E32D
Second: Q46V
The “folding stability dG” value of the first is higher: 4.39 kcal/mol for the first, 4.38 kcal/mol for the second.

Compared with N26A, N26I is lower in “folding stability dG” value: 4.41 kcal/mol for the first, 4.19 kcal/mol for the second.

Compared with R49C, R49K is lower in “folding stability dG” value: 4.42 kcal/mol for the first, 4.15 kcal/mol for the second.

Going from R49L to K19G, the “folding stability dG” value falls from 4.53 kcal/mol to 4.38 kcal/mol.

Going from K19E to I39T, the “folding stability dG” value falls from 4.12 kcal/mol to 3.95 kcal/mol.

First: G58C
Second: G58R
The “folding stability dG” value of the first is higher: 4.28 kcal/mol for the first, 4.27 kcal/mol for the second.

Going from K56N to K56I, the “folding stability dG” value rises from 4.44 kcal/mol to 4.52 kcal/mol.

K56L and K56P are the same in “folding stability dG” value: 4.5 kcal/mol for the first, 4.5 kcal/mol for the second.

Going from K56D to K56C, the “folding stability dG” value rises from 4.21 kcal/mol to 4.41 kcal/mol.

Going from T43N to T43F, the “folding stability dG” value rises from 3.86 kcal/mol to 4.41 kcal/mol.

Compared with T43W, A27G is higher in “folding stability dG” value: 4.29 kcal/mol for the first, 4.37 kcal/mol for the second.

A27M and A27W are the same in “folding stability dG” value: 4.42 kcal/mol for the first, 4.42 kcal/mol for the second.

Compared with E28Q, E28D is lower in “folding stability dG” value: 4.51 kcal/mol for the first, 4.26 kcal/mol for the second.

Going from E28R to E28S, the “folding stability dG” value falls from 4.37 kcal/mol to 4.1 kcal/mol.

Compared with E28T, E28V is higher in “folding stability dG” value: 4.4 kcal/mol for the first, 4.41 kcal/mol for the second.

Compared with I3H, E53F is lower in “folding stability dG” value: 4.7 kcal/mol for the first, 4.49 kcal/mol for the second.

Compared with E53Y, E53H is lower in “folding stability dG” value: 4.3 kcal/mol for the first, 4.17 kcal/mol for the second.

First: E53D
Second: E53A
The “folding stability dG” value of the first is higher: 4.34 kcal/mol for the first, 4.13 kcal/mol for the second.

A47L and A47K are the same in “folding stability dG” value: 4.65 kcal/mol for the first, 4.65 kcal/mol for the second.

Compared with K23P, K23R is higher in “folding stability dG” value: 3.93 kcal/mol for the first, 4.48 kcal/mol for the second.

First: V37N
Second: V37T
The “folding stability dG” value of the first is lower: 3.52 kcal/mol for the first, 4.32 kcal/mol for the second.

First: Q14P
Second: Q14S
The “folding stability dG” value of the first is lower: 3.48 kcal/mol for the first, 4.19 kcal/mol for the second.

Compared with L51S, A50H is lower in “folding stability dG” value: 4.59 kcal/mol for the first, 3.68 kcal/mol for the second.

First: A50V
Second: A50W
The “folding stability dG” value of the first is lower: 4.41 kcal/mol for the first, 4.69 kcal/mol for the second.

Compared with A59M, K52G is higher in “folding stability dG” value: 4.39 kcal/mol for the first, 4.44 kcal/mol for the second.

Compared with K52I, K52F is higher in “folding stability dG” value: 4.03 kcal/mol for the first, 4.62 kcal/mol for the second.

Going from K52D to K17M, the “folding stability dG” value rises from 4.25 kcal/mol to 4.42 kcal/mol.

First: K17H
Second: K17D
The “folding stability dG” value of the first is lower: 4.4 kcal/mol for the first, 4.49 kcal/mol for the second.

First: K33M
Second: K33G
The “folding stability dG” value of the first is higher: 4.39 kcal/mol for the first, 4.36 kcal/mol for the second.

Going from K33N to K33Q, the “folding stability dG” value rises from 4.32 kcal/mol to 4.49 kcal/mol.

Going from K33S to V30R, the “folding stability dG” value rises from 4.17 kcal/mol to 4.42 kcal/mol.

Compared with K6M, K6S is lower in “folding stability dG” value: 4.43 kcal/mol for the first, 4.26 kcal/mol for the second.

Going from E60L to E60N, the “folding stability dG” value rises from 4.21 kcal/mol to 4.29 kcal/mol.

Compared with I21Q, I21V is higher in “folding stability dG” value: 4.06 kcal/mol for the first, 4.33 kcal/mol for the second.

For I21R, the “folding stability dG” value was 3.62 kcal/mol.
